Reference: paper PMC5680780

Target: recombinant Clonorchis sinensis pyruvate kinase (Clonorchis sinensis)
Test: native gel or EMSA + SEC; purified rCsPK on 8% native PAGE against marker proteins; gel filtration on a Sepharose 12 10/300 GL column (AKTA FPLC), 0.8 ml/min, 50 mM Tris-HCl, 100 mM KCl, pH 7.5; apparent Mr about 290 kDa against a subunit of about 58 kDa

stoichiometry N: 5
Substance: recombinant Clonorchis sinensis pyruvate kinase (enzyme)
